Reference: paper PMC7943578

Tests used:
CC-Type2-(LaIdGe)4 [1] = assay: AUC; sedimentation velocity with 25% v/v isopropanol, 150 uM peptide, PBS pH 7.4
CC-Type2-(LaIdGe)4 [2] = assay: SEC; Superdex75 10/300 GL, 25% v/v IPA in PBS, samples loaded at 150 uM, monitored at 220 nm
CC-Type2-(LaIdGe)4 [3] = assay: AUC; sedimentation velocity, 150 uM peptide, 20 C, 50 krpm, PBS pH 7.4; self-association of the peptide
CC-Type2-(LaIdGe)4 [4] = assay: AUC; sedimentation equilibrium, 70 uM peptide, 20 C, PBS pH 7.4, single species model; self-association of the peptide
CC-Type2-(LaIdGe)4 [5] = assay: AUC; sedimentation equilibrium with 15% v/v isopropanol, 70 uM peptide, PBS pH 7.4, 30-45 krpm, single ideal species fit
CC-Type2-(LaIdGe)4 [6] = assay: AUC; sedimentation velocity with DPH, absorbance of DPH at 350 nm; 200 uM peptide, 5 uM DPH, 5% v/v DMSO in PBS pH 7.4, 25 C
[7] = target: CC-Type2-(LaIdGe)4-W19BrPhe; assay: crystal structure; vapour diffusion at 19 C; 0.05 M sodium HEPES, 5% w/v PEG 4000, 5% v/v 2-propanol, pH 7; SAD phasing on bromine

| stoichiometry N (x monomer mass) (CC-Type2-(LaIdGe)4 [1]) | stoichiometry N (CC-Type2-(LaIdGe)4 [2]) | stoichiometry N (CC-Type2-(LaIdGe)4 [3]) | stoichiometry N (CC-Type2-(LaIdGe)4 [4]) | stoichiometry N (x monomer mass) (CC-Type2-(LaIdGe)4 [5]) | stoichiometry N (x monomer mass) (CC-Type2-(LaIdGe)4 [6]) | stoichiometry N [7] | Substance |
| --- | --- | --- | --- | --- | --- | --- | --- |
| 5.5 | 6 | 6 | 6 | 5.7 | 6.2 | – | CC-Type2-(LaIdGe)4 (peptide) |
| – | – | – | – | – | – | 6 | CC-Type2-(LaIdGe)4-W19BrPhe (peptide) |
